Measurements published in patent publication US7989192B2, “Modified beta-lactamase and method for its preparation” (IPSAT Therapies Oy, priority 2006, dated 2011).

What was measured:
Experiment in all cases: purified protein, by the assay type
Format in all cases: biochemical, Bacillus cereus
Conditions in all cases: other: 10 mM phosphate buffer, pH 7.0, 30° C, Hanes plot, mean of three independent measurements
[1] = tested on: CC1(C)S[C@@H]2[C@H](NC(=O)[C@H](N)c3ccc(O)cc3)C(=O)N2[C@H]1C(=O)O
Method: (§1) The enzyme kinetic parameters kcat and Km were determined from initial rates by Hanes plot. The reactions were performed in 10 mM phosphate buffer, pH 7.0 at 30° C. The reaction cuvette (one mL) contained about 5 pmol of enzyme in all reactions except 1.7 pmol of enzyme in the meropenem assay. The hydrolysis of various beta-lactam substrates was spectrophometrically recorded at a wavelength specific for each substrate.
(§2) Values for different kinetic parameters (kcat, Km and kcat/Km) that represent mean values obtained from three independent measurements are reported in Table 6.

[2] = tested on: C[C@@H](O)[C@H]1C(=O)N2C(C(=O)O)=C(S[C@@H]3CN[C@H](C(=O)N(C)C)C3)[C@H](C)[C@H]12
Method: as §1, §2

[3] = tested on: CO/N=C(\C(=O)N[C@@H]1C(=O)N2C(C(=O)O)=C(CSc3nc(=O)c(=O)[nH]n3C)CS[C@H]12)c1csc(N)n1
Method: as §1, §2

[4] = tested on: CO/N=C(\C(=O)N[C@@H]1C(=O)N2C(C(=O)O)=C(COC(C)=O)CS[C@H]12)c1csc(N)n1
Method: as §1, §2

[5] = tested on: CO/N=C(\C(=O)N[C@@H]1C(=O)N2C(C(=O)O)=C(COC(N)=O)CS[C@H]12)c1ccco1
Method: as §1, §2

[6] = tested on: CCN1CCN(C(=O)N[C@@H](C(=O)N[C@@H]2C(=O)N3[C@@H]2SC(C)(C)[C@@H]3C(=O)O)c2ccccc2)C(=O)C1=O
Method: as §1, §2

[7] = tested on: CC1(C)S[C@@H]2[C@H](NC(=O)[C@H](N)c3ccccc3)C(=O)N2[C@H]1C(=O)O
Method: as §1, §2

“P2A metallo-beta-lactamase (Bacillus cereus)” showed a Km [1] of 716 µM, a Km [2] of 410 µM and a Km [3] of 68 µM. It also gave a Km [4] of 66 µM, a Km [5] of 27 µM and a Km [6] of 372 µM. For the same substance, the Km [7] was 942 µM.
